# Reference: publication PMC11773018
# Assays:
# [1] = molecular target: human complement factor H (human) (UniProt P08603); assay: SPR; human FH conjugated to a CM5 chip; untagged CspZ treated with 100 μM EDTA and dialysed against PBS, flowed in EDTA-treated PBS (100 μM) at 10 μl/min, 25 °C; 1:1 Langmuir model
# human factor H (human) [2] = molecular target: human factor H (human) (UniProt P08603); assay: SPR; human FH conjugated to a CM5 chip; untreated (PBS) untagged CspZ at one concentration (2 uM in methods and legend, 1 uM in the table's footnote) flowed in PBS at 30 ul/min, 25 C, Biacore T200, 1:1 Langmuir model
# human factor H (human) [3] = molecular target: human factor H (human) (UniProt P08603); assay: SPR; human FH conjugated to a CM5 chip; untagged CspZ treated with 100 uM EDTA and dialysed against PBS, one concentration (2 uM in methods and legend, 1 uM in the table's footnote), flow rate 30 ul/min, 25 C, Biacore T200, 1:1 Langmuir model
# human factor H (human) [4] = molecular target: human factor H (human) (UniProt P08603); assay: SPR; human FH conjugated to a CM5 chip; untagged CspZ treated with 100 uM EDTA and dialysed against PBS, one concentration (2 uM in methods and legend, 1 uM in the table's footnote), flow rate 10 ul/min, 25 C, Biacore T200, 1:1 Langmuir model
# human factor H (human) [5] = molecular target: human factor H (human) (UniProt P08603); assay: SPR; human FH conjugated to a CM5 chip; untreated (PBS) untagged CspZ at one concentration (2 uM in methods and legend, 1 uM in the table's footnote) flowed in PBS at 100 ul/min, 25 C, Biacore T200, 1:1 Langmuir model
# human factor H (human) [6] = molecular target: human factor H (human) (UniProt P08603); assay: SPR; human FH conjugated to a CM5 chip; untagged CspZ treated with 100 uM EDTA and dialysed against PBS, one concentration (2 uM in methods and legend, 1 uM in the table's footnote), flow rate 100 ul/min, 25 C, Biacore T200, 1:1 Langmuir model
# [7] = molecular target: human complement factor H (human) (UniProt P08603); assay: SPR; human FH conjugated to a CM5 chip; untreated untagged CspZ flowed in PBS at 10 μl/min, 25 °C; Biacore T200; 1:1 Langmuir model
# human factor H (human) [8] = molecular target: human factor H (human) (UniProt P08603); assay: SPR; human FH conjugated to a CM5 chip; untreated (PBS) untagged CspZ at one concentration (2 uM in methods and legend, 1 uM in the table's footnote) flowed in PBS at 10 ul/min, 25 C, Biacore T200, 1:1 Langmuir model
# human factor H (human) [9] = molecular target: human factor H (human) (UniProt P08603); assay: SPR; human FH conjugated to a CM5 chip; EDTA-treated, PBS-dialysed untagged CspZB31 then treated with 100 uM zinc (EDTA-Zn), one concentration (2 uM in methods and legend, 1 uM in the table's footnote), flow rate 100 ul/min, 25 C, Biacore T200, 1:1 Langmuir model
# [10] = molecular target: human complement factor H (human) (UniProt P08603); assay: SPR; human FH conjugated to a CM5 chip; EDTA-treated, PBS-dialysed untagged CspZ then incubated with 100 μM zinc, flowed in zinc-treated PBS (100 μM) at 10 μl/min, 25 °C; 1:1 Langmuir model
# human factor H (human) [11] = molecular target: human factor H (human) (UniProt P08603); assay: SPR; human FH conjugated to a CM5 chip; EDTA-treated, PBS-dialysed untagged CspZB31 then treated with 100 uM zinc (EDTA-Zn), one concentration (2 uM in methods and legend, 1 uM in the table's footnote), flow rate 30 ul/min, 25 C, Biacore T200, 1:1 Langmuir model
# human factor H (human) [12] = molecular target: human factor H (human) (UniProt P08603); assay: SPR; human FH conjugated to a CM5 chip; EDTA-treated, PBS-dialysed untagged CspZB31 then treated with 100 uM zinc (EDTA-Zn), one concentration (2 uM in methods and legend, 1 uM in the table's footnote), flow rate 10 ul/min, 25 C, Biacore T200, 1:1 Langmuir model
Substance,Kd [1] [nM],koff [1] [s⁻¹],kon [1] [M⁻¹ s⁻¹],Kd (human factor H (human) [2]) [nM],koff (human factor H (human) [2]) [s⁻¹],kon (human factor H (human) [2]) [M⁻¹ s⁻¹],Kd (human factor H (human) [3]) [nM],koff (human factor H (human) [3]) [s⁻¹],kon (human factor H (human) [3]) [M⁻¹ s⁻¹],Kd (human factor H (human) [4]) [nM],koff (human factor H (human) [4]) [s⁻¹],kon (human factor H (human) [4]) [M⁻¹ s⁻¹],Kd (human factor H (human) [5]) [nM],koff (human factor H (human) [5]) [s⁻¹],kon (human factor H (human) [5]) [M⁻¹ s⁻¹],Kd (human factor H (human) [6]) [nM],koff (human factor H (human) [6]) [s⁻¹],kon (human factor H (human) [6]) [M⁻¹ s⁻¹],Kd [7] [nM],koff [7] [s⁻¹],also measured
"CspZ from Borrelia burgdorferi B408, untagged (natural protein)",490,0.0071,13900,530,0.007,13600,480,0.006,13600,480,0.007,15700,540,0.006,13200,500,0.008,16700,540,0.0079,kon [7]: 14100 M⁻¹ s⁻¹; Kd (human factor H (human) [8]): 550 nM; koff (human factor H (human) [8]): 0.008 s⁻¹; kon (human factor H (human) [8]): 16500 M⁻¹ s⁻¹
"CspZ from Borrelia afzelii VS461, untagged (natural protein)",470,0.0045,10600,380,0.004,10800,430,0.003,9160,480,0.004,10700,340,0.003,10500,110,0.004,11100,370,0.0034,kon [7]: 9420 M⁻¹ s⁻¹; Kd (human factor H (human) [8]): 370 nM; koff (human factor H (human) [8]): 0.004 s⁻¹; kon (human factor H (human) [8]): 10800 M⁻¹ s⁻¹
"CspZ from Borrelia burgdorferi B31, untagged (natural protein)",3050,0.012,4370,270,0.017,63200,3730,0.021,5790,3370,0.012,4560,250,0.017,69200,3670,0.017,4830,340,0.021,Kd (human factor H (human) [9]): 660 nM; koff (human factor H (human) [9]): 0.044 s⁻¹; kon (human factor H (human) [9]): 66600 M⁻¹ s⁻¹; Kd [10]: 680 nM; koff [10]: 0.035 s⁻¹; kon [10]: 51200 M⁻¹ s⁻¹; Kd (human factor H (human) [11]): 570 nM; koff (human factor H (human) [11]): 0.034 s⁻¹; kon (human factor H (human) [11]): 61700 M⁻¹ s⁻¹; kon [7]: 66600 M⁻¹ s⁻¹; Kd (human factor H (human) [12]): 620 nM; koff (human factor H (human) [12]): 0.037 s⁻¹; kon (human factor H (human) [12]): 60900 M⁻¹ s⁻¹; Kd (human factor H (human) [8]): 230 nM; koff (human factor H (human) [8]): 0.016 s⁻¹; kon (human factor H (human) [8]): 68800 M⁻¹ s⁻¹
